According to patent US20090060915A1:

Columns and labels:
Experiment in all cases: cell-based or functional assay
[1] = biological target: endogenous angiomotin of bovine capillary endothelial (BCE) cells (p80- and p130-isoforms) (bovine)
[2] = biological target: p130-angiomotin (Homo sapiens (Human)) (UniProt Q4VCS5)
[3] = biological target: p80-angiomotin (Homo sapiens (Human)) (UniProt Q4VCS5)

Substance: Human angiostatin (kringle 1-4) (from UniProt P00747 99-459) (ligand)
- decrease in bFGF-stimulated migration of hTERT+-BCE cells, migration chamber assay [1]: 85%
- decrease in bFGF-stimulated migration of MAE cells expressing p130-angiomotin, Boyden chamber, angiostatin 5 ug/ml [2]: 160%
- decrease in motility of CHO cells expressing p130-angiomotin, Boyden chamber [2]: 50%
- invasion of Matrigel by human cytotrophoblasts, angiostatin 5 ug/ml [2]: 3 fold
- decrease in bFGF-stimulated migration of MAE cells expressing p80-angiomotin, Boyden chamber, angiostatin 5 ug/ml [3]: 175%
- decrease in motility of CHO cells expressing p80-angiomotin, Boyden chamber [3]: 50%
- invasion of Matrigel by human cytotrophoblasts, angiostatin 5 ug/ml [3]: 3 fold
